According to patent US20130295118A1 (CELLERANT THERAPEUTICS, published 2013):

T1: human C type Lectin Like molecule 1 (CLL-1) on cells (human, UniProt Q5QGZ9 1-265)
T1 sequence: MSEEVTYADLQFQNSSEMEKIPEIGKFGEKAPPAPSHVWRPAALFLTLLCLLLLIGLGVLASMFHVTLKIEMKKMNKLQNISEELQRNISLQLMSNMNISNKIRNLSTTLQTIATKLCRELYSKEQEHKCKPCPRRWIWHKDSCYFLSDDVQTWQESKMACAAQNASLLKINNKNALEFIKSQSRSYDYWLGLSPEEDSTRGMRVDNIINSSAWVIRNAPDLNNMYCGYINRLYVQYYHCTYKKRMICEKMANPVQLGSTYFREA

T2: biotinylated CLL-1 (hCLL-1) (human, UniProt Q5QGZ9 65-265, limits assumed, biotinylated (site not stated))
T2 sequence: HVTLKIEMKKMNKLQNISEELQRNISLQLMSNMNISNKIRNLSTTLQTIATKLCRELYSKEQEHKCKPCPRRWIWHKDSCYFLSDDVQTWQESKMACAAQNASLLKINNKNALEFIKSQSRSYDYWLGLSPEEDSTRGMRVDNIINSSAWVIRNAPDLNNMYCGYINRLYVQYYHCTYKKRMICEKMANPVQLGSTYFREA

T3: C lectin domain of CLL-1 expressed in 293T cells (human, UniProt Q5QGZ9 140-249)
T3 sequence: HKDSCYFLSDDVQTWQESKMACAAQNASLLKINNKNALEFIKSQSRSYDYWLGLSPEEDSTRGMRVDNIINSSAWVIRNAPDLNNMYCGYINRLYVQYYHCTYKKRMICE


Tests used:
[1] = target: T1, human C type Lectin Like molecule 1 …; experiment: cell-based or functional assay
[2] = target: T2, biotinylated CLL-1 (hCLL-1); experiment: biotinylated CLL-1 on streptavidin sensor tips; antibody at 10, 30, 90 ug/ml; global 1:1 fit
[3] = target: T1, human C type Lectin Like molecule 1 …; experiment: FACS, HL60 AML cell line
[4] = target: T1, human C type Lectin Like molecule 1 …; experiment: FACS, recombinant 293 cells expressing human CLL-1
[5] = target: T1, human C type Lectin Like molecule 1 …; experiment: FACS, OCI AML-5 AML cell line
[6] = target: T1, human C type Lectin Like molecule 1 …; experiment: cell-based or functional assay; remark: listed apart in the source
[7] = target: T1, human C type Lectin Like molecule 1 …; experiment: FACS, primary AML patient cells, Group 1
[8] = target: T1, human C type Lectin Like molecule 1 …; experiment: cell-based or functional assay; remark: listed apart in the source
[9] = target: T3, C lectin domain of CLL-1 expressed in …; experiment: binding to 293T cells expressing the C lectin domain of CLL-1

Binder	CDC (% killing), 10 ug/mL antibody, primary AML cells [1] [%]	Kd [2] [nM]	% of live cells with antibody binding [3] [%]	% of live cells with antibody binding [4] [%]	% of live cells with antibody binding [5] [%]	ADC EC50 (pM), saporin-conjugated antibody, cell viability [6] [pM]	positive patient samples / total tested [7]	ADCC EC50 (Promega ADCC Reporter Assay) [8] [ng/mL]	binding result [9]
CLL-1 antibody clone M5 (antibody, IgG2a, V domains shown) VH: EVQLQQSGAELVRPGASVKLSCTASGFNIKDDYIHWVKQRPEQGLEWIGWIDPEKGDTAYASKFQDKATITSDTSSNTAYLQLSSLTSEDTAVYYCTLTGRFDYWGQGTTLTVSS VL: DIVMSQSPSSLAVSVGEKVTMSCKSSQSLLYSSNQKNNLAWYQQKPGQSPKLLIYWASTRESGVPDRFTGSGSGTDFTLTISSVQAEDLAVYYCQQYYSYRTFGGGTKLEIK	17.9	0.553	1.7	1.1	2.3	150			
CLL-1 antibody clone G12 (antibody, IgG1, V domains shown) VH: QVQLQQPGAELVKPGASMKMSCKASGYTFPSSNIHWLKQTPGQGLEWIGVIYPGNGDTSYNQKFKDKATLTTDKSSSTAYMQLSSLTSEDSAIYFCARVYNWHFDVWGAGTTVTVSS VL: NIVLTQSPASLAVSLGQRATISCRASESVDGYGDIFMLWYQQKPGQPPKLLIYFASNLESGVPARFSGSGSRTDFTLTIDPVEADDAATYYCQQNNEDPYTFGGGTKLEIKR		0.07	88.3	99.9		19.4	2 of 2 patient samples		
CLL-1 antibody clone M22 (antibody, IgG2a, V domains shown) VH: QVQLQQPGAELVKPGASVKLSCKASGYTFTRYWMHWVKQRPGQGLEWIGNIDPSDTETHYNQQFKDKATLTVDKSSSTAYMQLSSLTSEDSAVYYCAIYYGNPSYYAMDYWGQGTSVTVSS VL: DIVMTQSPSSLTVTAGEKVTMSCKSSQNLLNSGNQKKYLNWYQQKPGQPPKLLIYWASTRESGVPDRFTGSGSGTDFTLTISSVQAEDLAVYFCQNDYSYPFTFGAGTKLELK	14.5	0.388	37.2	97	57.6				
CLL-1 antibody clone G4 (antibody, IgG1, V domains shown, also called 31.G4; 31G4) VH: EVQLQQSGPELVKPGASMKISCKASGYSFTGYTMNWVKQSHEKNLEWIGPINPYNDGTIYNPNFKGKATLTVDKASSTAYMELLSLTSDDPAVYYCARTDDYDDYTMDYWGQGTSVTVSS VL: EIQMTQTPSSLSASLGDRVTISCRASHDISNYLNWYQQKPDGTLKLLIYYTSRLHSGVPSRFSGSGSGTDYSLTISNLEQEDIATYFCQQGKTLLWTFGGGTKLEIK		0.053	83.2		83.2	44.4	2 of 2 patient samples		
human chimeric CLL-1 antibody ChiG4 (antibody, V domains shown) VH: EVQLQQSGPELVKPGASMKISCKASGYSFTGYTMNWVKQSHEKNLEWIGPINPYNDGTIYNPNFKGKATLTVDKASSTAYMELLSLTSDDPAVYYCARTDDYDDYTMDYWGQGTSVTVSS VL: EIQMTQTPSSLSASLGDRVTISCRASHDISNYLNWYQQKPDGTLKLLIYYTSRLHSGVPSRFSGSGSGTDYSLTISNLEQEDIATYFCQQGKTLLWTFGGGTKLEIK								105	
CLL-1 antibody clone M31 (antibody, IgG2a, V domains shown) VH: EVQLQQSGPELVKPGASVKMSCKASGYTFTSYVMHWVKQKPGQGLEWIGYINPYNDGTKYNEKFKGKATLTSDTSSSTAYMELNSLTSEDSAVYFCARPIYFDNDYFDYWGQGTTLKVSS VL: TIVLTQSPASLAVSLGQRATISCRASESVDSYGNSFMHWYQQKPGQPPKLLIYLASNLESGVPARFSGSGSRTDFTLTIDPVEADDAATYYCQQNNYDPWTFGGGTKLEIK	12.1	0.611	91	76	89.7	34.3			no binding
human chimeric CLL-1 antibody ChiM31 (antibody, V domains shown) VH: EVQLQQSGPELVKPGASVKMSCKASGYTFTSYVMHWVKQKPGQGLEWIGYINPYNDGTKYNEKFKGKATLTSDTSSSTAYMELNSLTSEDSAVYFCARPIYFDNDYFDYWGQGTTLKVSS VL: TIVLTQSPASLAVSLGQRATISCRASESVDSYGNSFMHWYQQKPGQPPKLLIYLASNLESGVPARFSGSGSRTDFTLTIDPVEADDAATYYCQQNNYDPWTFGGGTKLEIK								143	
CLL-1 antibody clone M29 (antibody, IgG1, V domains shown) VH: EVQLQQSGPELVKPGASVKMSCKASGYIFTSYVMYWVKQKPGQGLEWIGYINPYNDGTKYNEKFKGKATLTSDKSSSTAYMELSSLTSEDSAVYYCARYYDYDYYFDYWGQGTTLTVSS VL: DIQMTQSPSSLSASLGGKVTITCKASQDINKYIAWYQHKPGKGPRLLIHYTSTLQPGIPSRFSGSGSGRDYSFSISNLEPEDIATYYCLQYDYLWTFGGGTKLEIK		1.48	84.6	99.9	87.6	91.4			
CLL-1 antibody clone M26 (antibody, V domains shown, Conjugated to saporin in the ADC assays) VH: EVQLQQSGPELVKPGASVKMSCKASGYTFTSYFIHWVKQKPGQGLEWIGFINPYNDGSKYNEKFKGKATLTSDKSSSTAYMELSSLTSEDSAVYYCTRDDGYYGYAMDYWGQGTSVTVSS VL: DIQMTQSPSSLSASLGERVSLTCRATQELSGYLSWLQQKPDGTIKRLIYAASTLDSGVPKRFSGNRSGSDYSLTISSLESEDFADYYCLQYAIYPYTFGGGTKLEIKR		0.214				90.2			no binding
human chimeric CLL-1 antibody ChiM26 (antibody, V domains shown) VH: EVQLQQSGPELVKPGASVKMSCKASGYTFTSYFIHWVKQKPGQGLEWIGFINPYNDGSKYNEKFKGKATLTSDKSSSTAYMELSSLTSEDSAVYYCTRDDGYYGYAMDYWGQGTSVTVSS VL: DIQMTQSPSSLSASLGERVSLTCRATQELSGYLSWLQQKPDGTIKRLIYAASTLDSGVPKRFSGNRSGSDYSLTISSLESEDFADYYCLQYAIYPYTFGGGTKLEIKR								79	
CLL-1 antibody clone M2 (antibody, IgG1, V domains shown) VH: EVQLRQSGPELVKPGASVKMSCKASGYTFTSYFMHWVKQKPGQGLEWIGFINPYNDGTKYNEKFKGKATLTSDKSSSTAYMELNSLTSEDSAVYYCTRDDGYYDYAMDYWGQGTSVTVSS VL: DIQMTQSPSSLSASLGERVSLTCRASQEISVYLSWLQQKPDGTIKRLIYAASTLDSGVPERFSGSRSGSDYSLTISSLESEDFADYYCLQYASYPYTFGGGTKLEIKR		0.205	90.3	99.9	96.3	20.9	2 of 2 patient samples		
